The target of assay [1] is HLA-A*01:01. Nature of the assay: IEDB peptide-MHC binding, purified MHC/competitive/fluorescence; ≥ and ≤ were set here for values at or beyond the usual limits of such assays.
Assay [2] concerns the target HLA-B*58:01. Described as above.
The target of assay [3] is HLA-B*14:02. The description is as above.
Assay [4] deals with HLA-A*29:02. The description is as above.
Assay [5] addresses HLA-A*02:01. Described as above.
Assay [6] addresses HLA-A*03:01. Described as above.
Assay [7] addresses HLA-B*51:01. The description is as above.
Assay [8] has as its target HLA-A*31:01. The assay is described as above.
In assay [9] the target is HLA-B*40:02. The description is as above.
In assay [10] the target is HLA-B*44:03. Described as above.
Assay [11] deals with HLA-B*18:01. Described as above.
The target of assay [12] is HLA-B*08:01. The description is as above.
Assay [13] deals with HLA-B*07:02. The assay is described as above.
Assay [14] has as its target HLA-A*24:02. The assay is described as above.
For assay [15], the target named is HLA-A*68:02. Described as above.
Assay [16] concerns the target HLA-B*53:01. The assay is described as above.
The target in assay [17] is HLA-A*25:01. Described as above.
The target in assay [18] is HLA-A*11:01. The description is as above.
Assay [19] addresses HLA-B*37:01. Described as above.
Assay [20] addresses HLA-B*35:01. Described as above.
The target in assay [21] is HLA-A*24:02. Nature of the assay: IEDB peptide-MHC binding, purified MHC/competitive/radioactivity; ≥ and ≤ were set here for values at or beyond the usual limits of such assays. The note with it: source organism: Homo sapiens.
Assay [22] concerns the target HLA-B*58:01. Put plainly: IEDB peptide-MHC binding, purified MHC/direct/fluorescence; filed as Kd, often an IC50 or EC50 that approximates it; ≥ and ≤ were set here for values at or beyond the usual limits of such assays. As to conditions: source organism: Escherichia coli O157:H7.
For assay [23], the target named is HLA-C*04:01. The assay is described as above. The note with it: source organism: Escherichia coli O139:H28 str. E24377A.
Assay [24] has as its target HLA-B*15:17. The description is as above. As to conditions: source organism: Escherichia coli O157:H7.
Assay [25] deals with HLA-B*57:01. The description is as above. As to conditions: source organism: Escherichia coli O157:H7.
For assay [26], the target named is HLA-B*40:01. Nature of the assay: IEDB peptide-MHC binding, purified MHC/competitive/radioactivity; ≥ and ≤ were set here for values at or beyond the usual limits of such assays. The note with it: source organism: Human papillomavirus 16.
In assay [27] the target is HLA-B*73:01. Put plainly: IEDB peptide-MHC binding, purified MHC/competitive/fluorescence; filed as Kd, often an IC50 or EC50 that approximates it; ≥ and ≤ were set here for values at or beyond the usual limits of such assays. As to conditions: source organism: Giardia lamblia ATCC 50803.
In assay [28] the target is HLA-C*04:01. The assay is described as above. The note with it: source organism: Giardia lamblia ATCC 50803.
Assay [29] addresses HLA-C*14:02. Described as above. The note with it: source organism: Giardia lamblia ATCC 50803.
Assay [30] addresses HLA-B*45:06. The assay is described as above. As to conditions: source organism: Giardia lamblia ATCC 50803.
In assay [31] the target is HLA-B*83:01. Described as above. The note with it: source organism: Giardia lamblia ATCC 50803.
Assay [32] deals with HLA-A*68:23. The assay is described as above. The note with it: source organism: Giardia lamblia ATCC 50803.
For assay [33], the target named is HLA-B*15:42. The assay is described as above. The note with it: source organism: Giardia lamblia ATCC 50803.
The target of assay [34] is HLA-C*06:02. Put plainly: IEDB peptide-MHC binding, purified MHC/direct/fluorescence; filed as Kd, often an IC50 or EC50 that approximates it; ≥ and ≤ were set here for values at or beyond the usual limits of such assays. As to conditions: source organism: Giardia lamblia ATCC 50803.
Assay [35] addresses HLA-C*05:01. The assay is described as above. As to conditions: source organism: Giardia lamblia ATCC 50803.
The mark [36] stands for this setting: source organism: Ateles geoffroyi.

pIC50, pKd: −log10 of the molar value.

In general, pIC50 refers to the IC50 on a negative log10 scale, so that one unit is a factor of ten. Consider ILNRETLLDFV, for which the pIC50 in assay [1] (source organism: Homo sapiens) is at most 4.70; in assay [2] (source organism: Homo sapiens) it was at most 4.70; in [3] (source organism: Homo sapiens), at most 4.70; in assay [4] (source organism: Homo sapiens), 4.88; in assay [5] (source organism: Homo sapiens) it was 7.03; in [6] (source organism: Homo sapiens), at most 4.70. For the same sequence, the pIC50 in assay [7] (source organism: Homo sapiens) is at most 4.70; in assay [8] (source organism: Homo sapiens) it was at most 4.70; in assay [9] (source organism: Homo sapiens), 6.00; in assay [10] (source organism: Homo sapiens), at most 4.70; in [11] (source organism: Homo sapiens), at most 4.70; in [12] (source organism: Homo sapiens), at most 4.70. Also, the pIC50 in assay [13] (source organism: Homo sapiens), in assay [14] (source organism: Homo sapiens), in [15] (source organism: Homo sapiens), in assay [16] (source organism: Homo sapiens), in assay [17] (source organism: Homo sapiens) and in assay [18] (source organism: Homo sapiens) was at most 4.70 in each case. Also, the pIC50 in assay [19] (source organism: Homo sapiens) and in assay [20] (source organism: Homo sapiens) was at most 4.70 throughout.

For LPADPASVL, the pIC50 is at most 4.70 in assay [1] (setting [36]); at most 4.70 in assay [2] (setting [36]); 4.84 in assay [3] (setting [36]); 5.96 in [4] (setting [36]); at most 4.70 in assay [5] (setting [36]); at most 4.70 in [6] (setting [36]). For the same sequence, the pIC50 in [7] (setting [36]) is 5.79; in [8] (setting [36]), at most 4.70; in [9] (setting [36]), 5.48; in assay [10] (setting [36]), at most 4.70; in assay [11] (setting [36]), at most 4.70; in assay [12] (setting [36]), at most 4.70. In addition, the pIC50 in assay [13] (setting [36]) is 6.87; in [14] (setting [36]), at most 4.70; in assay [15] (setting [36]), 6.09; in [16] (setting [36]), 5.79; in assay [17] (setting [36]), at most 4.70; in [18] (setting [36]), at most 4.70. In addition, the figures for the pIC50 in assay [19] (setting [36]) and in assay [20] (setting [36]) were at most 4.70 and 8.22, respectively.

On to TYSVSFDSL, for which the pIC50 in [21] is 6.71.

The term pKd denotes the negative decadic logarithm of the Kd, by convention in mol/L. The low end stands for a large Kd, the high end for a small Kd. Regarding YMWECPDFF, the pKd in [22] was at most 5.30; in assay [23], 6.86; in assay [24] it was 6.80; in [25], 5.84.

In the case of SEYRHYCYSL, the pIC50 in assay [26] is 9.27.

In the case of YPFHIFYPV, the pKd was 5.88 in assay [27]; at most 5.30 in [28]; 6.72 in assay [29]; 5.33 in assay [30]; 6.86 in assay [31]; 7.37 in assay [32]. For the same sequence, the pKd in [33] was at most 5.30; in [34] it was at most 4.70; in [35], at most 4.70.
